From PMC3870252, “The N-Terminal Membrane-Spanning Domain of the Escherichia coli DNA Translocase FtsK Hexamerizes at Midcell” (mBio, 2013)
“And” between values parts separate entries of the source, which are not always exact repeats. Equal values may be shown once.

B1: FtsK-YPet (wild-type E. coli FtsK with a C-terminal YPet fusion) (natural protein, UniProt P46889 1-1329, looked up)
chain: MSQEYIEDKEVTLTKLSSGRRLLEALLILIVLFAVWLMAALLSFNPSDPSWSQTAWHEPIHNLGGMPGAWLADTLFFIFGVMAYTIPVIIVGGCWFAWRHQSSDEYIDYFAVSLRIIGVLALILTSCGLAAINADDIWYFASGGVIGSLLSTTLQPLLHSSGGTIALLCVWAAGLTLFTGWSWVTIAEKLGGWILNILTFASNRTRRDDTWVDEDEYEDDEEYEDENHGKQHESRRARILRGALARRKRLAEKFINPMGRQTDAALFSGKRMDDDEEITYTARGVAADPDDVLFSGNRATQPEYDEYDPLLNGAPITEPVAVAAAATTATQSWAAPVEPVTQTPPVASVDVPPAQPTVAWQPVPGPQTGEPVIAPAPEGYPQQSQYAQPAVQYNEPLQQPVQPQQPYYAPAAEQPAQQPYYAPAPEQPVAGNAWQAEEQQSTFAPQSTYQTEQTYQQPAAQEPLYQQPQPVEQQPVVEPEPVVEETKPARPPLYYFEEVEEKRAREREQLAAWYQPIPEPVKEPEPIKSSLKAPSVAAVPPVEAAAAVSPLASGVKKATLATGAAATVAAPVFSLANSGGPRPQVKEGIGPQLPRPKRIRVPTRRELASYGIKLPSQRAAEEKAREAQRNQYDSGDQYNDDEIDAMQQDELARQFAQTQQQRYGEQYQHDVPVNAEDADAAAEAELARQFAQTQQQRYSGEQPAGANPFSLDDFEFSPMKALLDDGPHEPLFTPIVEPVQQPQQPVAPQQQYQQPQQPVPPQPQYQQPQQPVAPQPQYQQPQQPVAPQQQYQQPQQPVAPQQQYQQPQQPVAPQPQDTLLHPLLMRNGDSRPLHKPTTPLPSLDLLTPPPSEVEPVDTFALEQMARLVEARLADFRIKADVVNYSPGPVITRFELNLAPGVKAARISNLSRDLARSLSTVAVRVVEVIPGKPYVGLELPNKKRQTVYLREVLDNAKFRDNPSPLTVVLGKDIAGEPVVADLAKMPHLLVAGTTGSGKSVGVNAMILSMLYKAQPEDVRFIMIDPKMLELSVYEGIPHLLTEVVTDMKDAANALRWCVNEMERRYKLMSALGVRNLAGYNEKIAEADRMMRPIPDPYWKPGDSMDAQHPVLKKEPYIVVLVDEFADLMMTVGKKVEELIARLAQKARAAGIHLVLATQRPSVDVITGLIKANIPTRIAFTVSSKIDSRTILDQAGAESLLGMGDMLYSGPNSTLPVRVHGAFVRDQEVHAVVQDWKARGRPQYVDGITSDSESEGGAGGFDGAEELDPLFDQAVQFVTEKRKASISGVQRQFRIGYNRAARIIEQMEAQGIVSEQGHNGNREVLAPPPFD
notes: FtsK, DNA translocase, Escherichia coli; wild-type protein, 1,329 amino acids, integral membrane protein; also called wild-type FtsK; source: expressed from the endogenous wild-type chromosomal locus, E. coli K-12 AB1157 derivative, in live cells; not shown: YPet, C-terminal, kept
B2: FtsKΔC-YPet (FtsK derivative lacking the C-terminal domain, amino acids 1 to 818) (domain or fragment, E. coli, UniProt P46889 1-818, looked up)
chain: MSQEYIEDKEVTLTKLSSGRRLLEALLILIVLFAVWLMAALLSFNPSDPSWSQTAWHEPIHNLGGMPGAWLADTLFFIFGVMAYTIPVIIVGGCWFAWRHQSSDEYIDYFAVSLRIIGVLALILTSCGLAAINADDIWYFASGGVIGSLLSTTLQPLLHSSGGTIALLCVWAAGLTLFTGWSWVTIAEKLGGWILNILTFASNRTRRDDTWVDEDEYEDDEEYEDENHGKQHESRRARILRGALARRKRLAEKFINPMGRQTDAALFSGKRMDDDEEITYTARGVAADPDDVLFSGNRATQPEYDEYDPLLNGAPITEPVAVAAAATTATQSWAAPVEPVTQTPPVASVDVPPAQPTVAWQPVPGPQTGEPVIAPAPEGYPQQSQYAQPAVQYNEPLQQPVQPQQPYYAPAAEQPAQQPYYAPAPEQPVAGNAWQAEEQQSTFAPQSTYQTEQTYQQPAAQEPLYQQPQPVEQQPVVEPEPVVEETKPARPPLYYFEEVEEKRAREREQLAAWYQPIPEPVKEPEPIKSSLKAPSVAAVPPVEAAAAVSPLASGVKKATLATGAAATVAAPVFSLANSGGPRPQVKEGIGPQLPRPKRIRVPTRRELASYGIKLPSQRAAEEKAREAQRNQYDSGDQYNDDEIDAMQQDELARQFAQTQQQRYGEQYQHDVPVNAEDADAAAEAELARQFAQTQQQRYSGEQPAGANPFSLDDFEFSPMKALLDDGPHEPLFTPIVEPVQQPQQPVAPQQQYQQPQQPVPPQPQYQQPQQPVAPQPQYQQPQQPVAPQQQYQQPQQPVAPQQQYQQPQQPVAPQPQDT
notes: FtsK, Escherichia coli, amino acids 1 to 818 (lacks the C-terminal translocase domain); source: expressed from the endogenous chromosomal locus, E. coli K-12 AB1157 derivative, in live cells; not shown: YPet, C-terminal, kept
B3: FtsKN-YPet (N-terminal domain of E. coli FtsK, amino acids 1 to 210) (domain or fragment, UniProt P46889 1-210, looked up)
chain: MSQEYIEDKEVTLTKLSSGRRLLEALLILIVLFAVWLMAALLSFNPSDPSWSQTAWHEPIHNLGGMPGAWLADTLFFIFGVMAYTIPVIIVGGCWFAWRHQSSDEYIDYFAVSLRIIGVLALILTSCGLAAINADDIWYFASGGVIGSLLSTTLQPLLHSSGGTIALLCVWAAGLTLFTGWSWVTIAEKLGGWILNILTFASNRTRRDDT
notes: FtsK, Escherichia coli, N-terminal membrane-spanning domain, amino acids 1 to 210; source: expressed from the endogenous chromosomal locus, E. coli K-12 AB1157 derivative, in live cells; not shown: YPet, C-terminal, kept

How the values were obtained:
[1] = target: EcFtsKN (purified N-terminal domain of FtsK from E. coli) (E. coli); experiment: oligomer bands on SDS-PAGE of SEC fractions; fractions of the Superdex S-200 second purification step at a lower DDM detergent concentration, 12% Coomassie blue-stained SDS-PAGE
[2] = target: TtFtsKN (purified N-terminal domain of FtsK from Thermoanaerobacter tengcongensis) (Thermoanaerobacter tengcongensis); experiment: SEC-MALS; Superdex S-200 column, in DDM detergent; masses after subtraction of the micelle contribution; hexamer and monomer peaks
[3] = target: TtFtsKN (purified N-terminal domain of FtsK from Thermoanaerobacter tengcongensis) (Thermoanaerobacter tengcongensis); experiment: oligomer bands on SDS-PAGE of SEC fractions; fractions of the Superdex S-200 second purification step at a lower DDM detergent concentration, 12% Coomassie blue-stained SDS-PAGE
[4] = target: the molecule itself; experiment: quantitative live-cell fluorescence stoichiometry (widefield microscopy); live E. coli in minimal glycerol medium; integrated midcell fluorescence divided by the intensity of a single YPet fluorophore; periodicity from the power spectrum of measured stoichiometries

Row | Molecule | stoichiometry N [4] | also measured
1 | EcFtsKN (purified N-terminal domain of FtsK from E. coli) (domain or fragment) |  | stoichiometry N [1]: 2 and 6
2 | TtFtsKN (purified N-terminal domain of FtsK from Thermoanaerobacter tengcongensis) (domain or fragment) |  | stoichiometry N [2]: 6; stoichiometry N [3]: 2 and 6
3 | B1 | 6.12 | 
4 | B2 | 6.05 | 
5 | B3 | 6 | 
